The source of these data is patent US20250215104A1 (WALDEN BIOSCIENCES, published 2025).

Substitutions are numbered along the chain they refer to. Numbers in names are those of the source.

B1: suPAR_DB05_D10 (scFv, V domains shown)
VH: QVQLVQSGAEVKKPGASVKVSCKASGYTFSNYYIHWVRQAPGQGLEWMGWIDHENGNTIYDQKFQGRVTMTRDTSTSTVYMELSSLRSEDTAVYYCARGTDVDWFVYWGQGTLVTVSS
VL: DIQMTQSPSSLSASVGDRVTITCRARQSVSYMYWYQQKPGKAPKLLIYRTSNLASGVPSRFSGSGSGTDFTLTISSLQPEDFATYYCQQYHSYPPTFGGGTKVEIK
notes: Screened as scFv
B2: suPAR_DB05_E03 (scFv, V domains shown)
VH: B1 VH with Y27H, F29L, S30N, N31S, H53P, E54S, N55G, T100Y
VL: B1 VL with R24S, Q27S
notes: Screened as scFv
B3: suPAR_DB05_D02 (scFv, V domains shown)
VH: B1 VH with F29I, S30T, N31G, Y32N, I34M, N57S, T100Y
VL: B1 VL with R24S, V29I
notes: Screened as scFv
B4: suPAR_DB05_E01 (scFv, V domains shown)
VH: B1 VH with S30T, I34M, T100Y
VL: B1 VL with Q27S
notes: Screened as scFv
B5: suPAR_DB05_D12 (scFv, V domains shown)
VH: B1 VH with Y27F, S30T, I34F, H53P, T100Y
VL: B1 VL with R24S, Q27S
notes: Screened as scFv
B6: suPAR_DB05_C08 (scFv, V domains shown)
VH: B1 VH with S30T, N31S, I34M, H53P, T100Y
VL: B1 VL
notes: Screened as scFv
B7: suPAR_DB05_E05 (scFv, V domains shown)
VH: B1 VH with T28N, S30T, I34M, E54S, N57S, T100Y
VL: B1 VL with R24S, Q27S
notes: Screened as scFv
B8: suPAR_DB05_D03 (scFv, V domains shown)
VH: B1 VH with S30G, I34M, D61A, T100N
VL: B1 VL with R24S, Q27S
notes: Screened as scFv
B9: suPAR_DB05_C11 (scFv, V domains shown)
VH: QVQLVQSGAEVKKPGASVKVSCKASGYIFTSYYMHWVRQAPGQGLEWMGWIDPYSGATNYAQKFQGRVTMTRDTSTSTVYMELSSLRSEDTAVYYCARGYDVDWFVYWGQGTLVTVSS
VL: B1 VL with Q27S, V29I
notes: Screened as scFv
B10: suPAR_DB05_E04 (scFv, V domains shown)
VH: B1 VH with T28S, S30T, N31S, Y32N, I34M, T100Y
VL: B1 VL with R24S, Q27S
notes: Screened as scFv
B11: suPAR_DB05_D05 (scFv, V domains shown)
VH: B1 VH with S30T, I34M, E54S, N57S, T100Y
VL: B1 VL
notes: Screened as scFv
B12: suPAR_DB05_D08 (scFv, V domains shown)
VH: B9 VH with I28T, S31R, M48V, Y54H, A57G, V102I
VL: B1 VL with R24S
notes: Screened as scFv
B13: suPAR_DB05_C09 (scFv, V domains shown)
VH: B9 VH with I28T, S31G, D52S, Y54D, N59K, Y60V
VL: B1 VL with R24S, Q27S
notes: Screened as scFv
B14: suPAR_DB05_D01 (scFv, V domains shown)
VH: B1 VH with Y27H, F29S, S30T, I34M, N55G, I59S, T100Y
VL: B1 VL with R24S, Q27S
notes: Screened as scFv
B15: suPAR_DB05_E02 (scFv, V domains shown)
VH: B9 VH with I28T, P53L, Y54N, A57G, T58A, N59K, K63R
VL: B1 VL with R24S, Q27S
notes: Screened as scFv
B16: suPAR_DB05_D11 (scFv, V domains shown)
VH: B1 VH with F29L, S30T, N31G, I34M, H35Q, H53P, N57S, T100Y
VL: B1 VL with R24S, R26S, Q27S
notes: Screened as scFv
B17: suPAR_DB05_D06 (scFv, V domains shown)
VH: B1 VH with N31S, I34M, T100D
VL: B1 VL with R24S, Q27S
notes: Screened as scFv
B18: suPAR_DB05_D09 (scFv, V domains shown)
VH: B9 VH with I28T, Y54E, S55N, A57N, N59I
VL: B1 VL with R24S, Q27S, N52S
notes: Screened as scFv
B19: suPAR_DB05_C06 (scFv, V domains shown)
VH: B9 VH with Y27F, I28N, F29I, T30K, M34I, Y54N, A57G
VL: B1 VL with R24S, Q27S
notes: Screened as scFv
B20: suPAR_DB05_C07 (scFv, V domains shown)
VH: B1 VH with S30T, N31S, Y32H, I34V, N55G, N57S, I59S, T100Y
VL: B1 VL
notes: Screened as scFv
B21: WAb0001 (antibody, V domains shown)
VH: B9 VH with I28N, F29I, T30K, S31D, M34I, D52S, Y54D, A57V
VL: B1 VL with R24S
notes: constant regions not tied to this antibody; also called WAb CD0001
B22: WAb0002 (antibody, V domains shown)
VH: B9 VH with I28N, F29I, T30K, S31D, M34I, D52S, Y54S, A57V
VL: B1 VL with R24S
notes: constant regions not tied to this antibody; also called WAb CD0002
B23: WAb0009 (antibody, V domains shown)
VH: B1 VH with S30T, N31G, Y32H, I34V, T100Y
VL: B1 VL with R24S, Q27S
notes: constant regions not tied to this antibody; also called WAb CD0009
B24: WAb0011 (antibody, V domains shown)
VH: B1 VH with S30T, N31G, Y32S, I34V, T100Y
VL: B1 VL with R24S, Q27S
notes: constant regions not tied to this antibody; also called WAb CD0011
B25: WAb0012 (antibody, V domains shown)
VH: B1 VH with S30T, N31G, I34M, T100Y
VL: B1 VL with R24S, V29I
notes: constant regions not tied to this antibody; also called WAb CD0012
B26: WAb0003 (antibody, V domains shown)
VH: B1 VH with Y27F, T28N, F29I, S30K, N31D, H53P, N57S, T100Y, V102I
VL: B1 VL with R24S, Q27S
notes: constant regions not tied to this antibody; also called WAb CD0003
B27: WAb0008 (antibody, V domains shown)
VH: B1 VH with S30T, N31S, Y32H, H35Q
VL: B1 VL with R24S, Q27S
notes: WAb0006 VL + mouse kappa constant; also called WAb CD0008; WAb008
B28: WAb0015 (antibody, V domains shown)
VH: B9 VH with I28T, S31N, M34I, D52S, Y54D, A57G, N59K
VL: B1 VL with R24S, Q27S
notes: constant regions not tied to this antibody; also called WAb CD0015
B29: WAb0013 (antibody, V domains shown)
VH: B1 VH with S30T, I34M, N57S, D61A, T100Y
VL: B1 VL with R24S
notes: constant regions not tied to this antibody; also called WAb CD0013
B30: WAb0016 (antibody, V domains shown)
VH: B9 VH with I28T, S31N, M34I, D52S, Y54S, A57G, N59K
VL: B1 VL with R24S, Q27S
notes: constant regions not tied to this antibody; also called WAb CD0016
B31: WAb0010 (antibody, V domains shown)
VH: B1 VH with S30T, N31G, Y32N, I34V, T100Y
VL: B1 VL with R24S, Q27S
notes: constant regions not tied to this antibody; also called WAb CD0010
B32: WAb0005 (antibody, V domains shown)
VH: B1 VH with S30I, N31G, Y32S, I34V, T100Y
VL: B1 VL with R24S, Q27S, N52S
notes: constant regions not tied to this antibody; also called WAb CD0005
B33: WAb0007 (antibody, V domains shown)
VH: B1 VH with S30I, N31G, Y32S, I34V, T100Y
VL: B1 VL with R24S, Q27S, N52S
notes: also called WAb CD0007
B34: WAb0017 (antibody, V domains shown)
VH: B1 VH with N31A, I34M, T100Y
VL: B1 VL
notes: constant regions not tied to this antibody; also called WAb CD0017
B35: WAb0006 (antibody, V domains shown)
VH: B1 VH with S30T, N31S, Y32H, H35Q
VL: B1 VL with R24S, Q27S
notes: light chain is WAL0921 (human kappa) with Q27S; also called WAb CD0006; original backup candidate
B36: WAb0004 (antibody, V domains shown)
VH: B1 VH with Y27F, T28N, F29I, S30K, N31D, H53P, N55S, N57S, T100Y, V102I
VL: B1 VL with R24S, Q27S
notes: constant regions not tied to this antibody; also called WAb CD0004

T2 sequence (Q9GK78 23-303 limits assumed): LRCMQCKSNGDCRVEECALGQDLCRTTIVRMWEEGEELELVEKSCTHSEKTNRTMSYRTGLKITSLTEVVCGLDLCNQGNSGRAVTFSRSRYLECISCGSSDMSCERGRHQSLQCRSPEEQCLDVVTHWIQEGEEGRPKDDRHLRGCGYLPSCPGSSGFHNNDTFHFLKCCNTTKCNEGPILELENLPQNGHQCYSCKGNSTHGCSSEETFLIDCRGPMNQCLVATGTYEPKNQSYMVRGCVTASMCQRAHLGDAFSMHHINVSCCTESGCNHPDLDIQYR

The first test addresses T1, human soluble urokinase plasminogen activator receptor (suPAR) (human, UniProt Q03405 23-303, limits assumed).
T1 construct: Column head says only 'human'; also called hsuPAR; human suPAR
Nature of the test: BLI (Octet) off-rate screen of scFv clones. In general terms: BLI is a label-free optical method that tracks binding on a fibre tip over time.
T1 sequence (Q03405 23-303 limits assumed): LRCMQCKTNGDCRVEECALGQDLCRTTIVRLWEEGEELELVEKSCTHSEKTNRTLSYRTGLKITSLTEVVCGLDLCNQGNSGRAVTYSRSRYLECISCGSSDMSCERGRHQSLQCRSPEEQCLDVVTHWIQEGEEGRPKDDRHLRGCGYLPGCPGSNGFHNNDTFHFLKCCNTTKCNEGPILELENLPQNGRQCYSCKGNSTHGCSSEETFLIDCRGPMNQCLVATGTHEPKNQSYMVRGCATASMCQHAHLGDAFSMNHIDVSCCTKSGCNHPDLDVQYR
One may read the koff as a measure of how fast the partners let go of each other. Read a high koff as a short-lived complex. B1 returned a koff of 0.006 s⁻¹.
For B2, the koff worked out at 0.00535 s⁻¹.
Consider B3, for which the koff worked out at 0.00116 s⁻¹.
On to B4, for which the koff was 0.00208 s⁻¹.
For the molecule B5, the koff worked out at 0.00477 s⁻¹.
The same measure, in the same setting: for B6 the value was 0.00284 s⁻¹.
Consider B7, for which the koff was found to be 0.00165 s⁻¹.
B8 displayed a koff of 0.00345 s⁻¹.
Still for that read-out and setting: for B9 the value was 0.00335 s⁻¹; for B10, 0.00544 s⁻¹.
B11: the koff was 0.001 s⁻¹.
Still for that read-out and setting: the same measure for B12: 0.00471 s⁻¹.
Same read-out and setting: for B13 the value was 0.00384 s⁻¹; for B14, 0.00533 s⁻¹.
Consider B15, for which the koff stood at 0.00517 s⁻¹.
Same read-out and setting: for B16 the value was 0.00555 s⁻¹; for B17, 0.00345 s⁻¹.
Still for that read-out and setting: the same measure for B18: 0.00384 s⁻¹; for B19: 0.00507 s⁻¹.
Still for that read-out and setting: for B20 the value was 0.00431 s⁻¹.

Another test concerns the target T2, cynomolgus soluble urokinase plasminogen activator receptor (suPAR) (cynomolgus, UniProt Q9GK78 23-303, limits assumed).
T2 construct: Column head says only 'cynomologus'; also called cynomolgus suPAR; cynomolgus uPAR
Kind of test: BLI (Octet) off-rate screen of scFv clones.
In turn, B1 had a koff of 0.000851 s⁻¹.
Still for that read-out and setting: for B2 the value was 0.000265 s⁻¹; for B3, 0.000435 s⁻¹; for B4, 0.000767 s⁻¹.
The molecule B5 had a koff of 0.000352 s⁻¹.
Turning to B6, the koff came out at 0.000548 s⁻¹.
For B7, the koff came to 0.000298 s⁻¹.
Same read-out and setting: the same measure for B8: 0.00124 s⁻¹; for B9: 0.000168 s⁻¹; for B10: 0.000354 s⁻¹.
The molecule B11 gave a koff of 0.000669 s⁻¹.
For B12, the koff worked out at 7.69e-05 s⁻¹.
Regarding B13, the koff is 0.000464 s⁻¹.
Take B14: the koff turned out to be 0.000315 s⁻¹.
B15 displayed a koff of 0.000824 s⁻¹.
Consider B16, for which the koff was 0.000775 s⁻¹.
Same read-out and setting: the same measure for B17: 0.000375 s⁻¹.
Turning to B18, the koff worked out at 0.000666 s⁻¹.
The molecule B19 returned a koff of 0.000123 s⁻¹.
In the case of B20, the koff was determined as 0.000237 s⁻¹.

A further test has as its target T3, human soluble urokinase plasminogen activator receptor (suPAR) (human, UniProt Q03405 23-303, limits assumed).
T3 construct: also called hsuPAR; human suPAR
Nature of the test: dissociation rate (kdis) on human suPAR; method not stated.
T3 sequence (Q03405 23-303 limits assumed): as above
Turning to B21, the koff was determined as 3.04e-07 s⁻¹.
In the case of B22, the koff came out at 8.37e-05 s⁻¹.
Molecule B23 had a koff of 3.47e-07 s⁻¹.
As to B24, the koff is 2.36e-07 s⁻¹.
B25 displayed a koff of 2.93e-07 s⁻¹.
On the same count and under the same terms, the same measure for B26: 3.57e-07 s⁻¹; for B27: 2.83e-07 s⁻¹; for B28: 2.97e-07 s⁻¹.
On the same count and under the same terms, for B29 the value was 2.44e-07 s⁻¹; for B30, 0.000213 s⁻¹; for B31, 3.89e-07 s⁻¹.
Regarding B32, the koff stood at 3.97e-07 s⁻¹.
Turning to B33, the koff turned out to be 2.76e-07 s⁻¹.
The same measure, in the same setting: the same measure for B34: 3.63e-07 s⁻¹; for B35: 3.39e-07 s⁻¹; for B36: 2.61e-07 s⁻¹.
